The values that follow come from US20050042213A1 (INSIGHT BIOPHARMACEUTICALS, published 2005).

To fix the notation:
T1: active heparanase (H53), heterodimer of the 8 kDa and 45 kDa subunits (human, UniProt Q9Y251 36-109; Q9Y251 158-543)
T1 sequence 1: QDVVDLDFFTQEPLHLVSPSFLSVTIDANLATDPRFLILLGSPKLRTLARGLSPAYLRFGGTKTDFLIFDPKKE
T1 sequence 2: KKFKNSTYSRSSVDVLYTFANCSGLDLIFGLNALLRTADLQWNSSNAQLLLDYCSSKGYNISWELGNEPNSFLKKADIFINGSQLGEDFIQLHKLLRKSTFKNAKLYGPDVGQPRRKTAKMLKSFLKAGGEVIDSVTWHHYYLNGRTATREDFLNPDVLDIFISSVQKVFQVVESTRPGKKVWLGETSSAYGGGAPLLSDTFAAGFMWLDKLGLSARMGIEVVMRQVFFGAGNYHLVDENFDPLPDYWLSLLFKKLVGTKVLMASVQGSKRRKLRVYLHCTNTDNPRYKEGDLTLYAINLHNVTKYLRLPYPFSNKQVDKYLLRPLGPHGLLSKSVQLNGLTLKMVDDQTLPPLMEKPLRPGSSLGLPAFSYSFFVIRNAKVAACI

T2: pro-heparanase (H60), purified recombinant human 60 kDa latent heparanase (human, UniProt Q9Y251 36-543)
T2 sequence: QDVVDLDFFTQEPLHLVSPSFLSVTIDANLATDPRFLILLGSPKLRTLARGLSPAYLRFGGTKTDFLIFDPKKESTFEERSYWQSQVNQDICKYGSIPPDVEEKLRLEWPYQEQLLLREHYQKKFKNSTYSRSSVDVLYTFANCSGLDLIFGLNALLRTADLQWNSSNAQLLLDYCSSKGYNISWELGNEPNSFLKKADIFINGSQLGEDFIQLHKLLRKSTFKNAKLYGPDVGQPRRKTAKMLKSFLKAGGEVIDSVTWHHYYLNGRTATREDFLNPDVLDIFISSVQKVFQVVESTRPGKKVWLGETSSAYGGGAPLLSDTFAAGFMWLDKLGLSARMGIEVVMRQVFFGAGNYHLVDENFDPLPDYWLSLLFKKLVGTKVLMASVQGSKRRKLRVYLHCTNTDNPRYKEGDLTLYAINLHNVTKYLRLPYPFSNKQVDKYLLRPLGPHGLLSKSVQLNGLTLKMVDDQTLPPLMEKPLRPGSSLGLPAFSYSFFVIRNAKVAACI

The first experiment has as its target T1, active heparanase (H53), heterodimer of …. Put plainly: cell-based or functional assay.
RFLILL [P8-18]: the “IC50 H53” value was 5 µM.

CPAYLRFGGTKTDFLIFDPLLE [Pep-7]: the “IC50 H53” value was found to be 7 µM.

As to PRFLILLGSPKLR [P8-4], the “IC50 H53” value came to 2.3 µM.

Take LRTLARGLSPAYL [P8-5]: the “IC50 H53” value stood at 18 µM.

As for PRFLILL [P8-11], the “IC50 H53” value stood at 1.4 µM.

Take DPRFLILL [P8-16]: the “IC50 H53” value was 6 µM.

For FLILLGSPKLRTL [P8-8], the “IC50 H53” value worked out at 8 µM.

The next experiment concerns the target T2, pro-heparanase (H60), purified …. Put plainly: cell-based or functional assay.
Turning to PRFLILL [P8-11], the “IC50 H60 (µM), H60 activation in the cell-based assay” value came to 65 µM.

A further experiment has as its target T1, active heparanase (H53), heterodimer of …. Put plainly: cell-based or functional assay. This is another data set of the same source.
For CTWHHYYLNGRTATR [Pep-25], the “IC50 Heparanase” value is 21 µM.
